The supplement of paper PMC7877785
± gives the uncertainty stated by the source.

Assay: self-splicing fitness, log relative to wild type (ln ratio); higher = more splicing; Tetrahymena group I intron in knt gene, E. coli kanamycin selection, DiMSum; sequences stand for … in CUCUCU…GGAGGGAAAAGUUAUCAGGCAUGCACCUGGUAGCUAGUCUUUAAACCAAUAGAUUGCAUCGGUUUAAAAGGCAAGACCGUCAAAUUGCGGGAAAGGGGUCAACAGCCGUUCAGUACCAAGUCUCAGGGGAAACUUUGAGAUGGCCUUGCAAAGGGUAUGGUAAUAAGCUGACGGACAUGGUCCUAACCACGCAGCCAAGUCCUAAGUCAACAGAUCUUCUGUUGAUAUGGAUGCAGUUCACAGACUAAAUGUCGGUCGGGGAAGAUGUAUUCUUCUCAUAAGAUAUAGUCGGACCUCUCCUUAAUGGGAGCUAGCGGAUGAAGUGAUGCAACACUGGAGCCGCUGGGAACUAAUUUGUAUGCGAAAGUAUAUUGAUUAGUUUUGGAGUACUCGUGGUCG
In short: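 A randomised library covering all eight P1ex-region intron nucleotides was built with the intron in the knt kanamycin-resistance gene on pET-22b(+) and held in E. coli BL21(DE3). Cells were grown overnight at 37°C or 30°C on LB agar, with or without 25 μg/mL kanamycin, plus 100 μg/mL carbenicillin, 50 μM IPTG and 0.2% rhamnose, and pooled colonies were amplicon-sequenced on an Illumina HiSeq 2500. DiMSum fitness is the error-weighted combination of wild-type-normalised replicate fold changes, kanamycin versus none.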

Sequence	self-splicing fitness (ln) (30 °C)	self-splicing fitness (ln) (37 °C)
CAUGAGCAAUAUUACGCGAG	-2.19 ± 0.14	-1.47 ± 0.18
CAUGAGCAAUAUUACGCGUC	–	-2.76 ± 0.31
CAUGAGCAAUAUUACGCUAU	-3.46 ± 0.3	-1.99 ± 0.21
CAUGAGCAAUAUUACGGAGA	-3.91 ± 0.35	-2.58 ± 0.48
CAUGAGCAAUAUUACGGAUU	-3.76 ± 0.21	-2.52 ± 0.26
CAUGAGCAAUAUUACGGCGG	-0.18 ± 0.094	-0.278 ± 0.14
CAUGAGCAAUAUUACGGCGU	-3.61 ± 0.47	-1.97 ± 0.34
CAUGAGCAAUAUUACGGGAA	–	-1.66 ± 0.25
CAUGAGCAAUAUUACGGGCC	–	-1.98 ± 0.36
CAUGAGCAAUAUUACGGGCU	-3.53 ± 0.16	-2.11 ± 0.15
CAUGAGCAAUAUUACGGUAA	–	-2.65 ± 0.34
CAUGAGCAAUAUUACGUACU	-3.25 ± 0.18	-2.59 ± 0.18
CAUGAGCAAUAUUACGUCAU	-3.61 ± 0.24	-1.24 ± 0.22
CAUGAGCAAUAUUACGUCUC	-2.83 ± 0.22	–
CAUGAGCAAUAUUACGUGUC	-2.98 ± 0.17	-1.82 ± 0.22
CAUUAGCAAUAUUACGAAGG	-1.09 ± 0.089	-0.624 ± 0.099
CAUUAGCAAUAUUACGACAA	-2.37 ± 0.24	-2.09 ± 0.32
CAUUAGCAAUAUUACGACCA	-2.56 ± 0.42	-1.67 ± 0.37
CAUUAGCAAUAUUACGAGAC	-3.15 ± 0.46	-1.57 ± 0.42
CAUUAGCAAUAUUACGAGAU	-4.04 ± 0.46	-2.9 ± 0.24
CAUUAGCAAUAUUACGAGCG	0.0198 ± 0.086	0.256 ± 0.098
CAUUAGCAAUAUUACGAGGG	-3.1 ± 0.18	-2 ± 0.21
CAUUAGCAAUAUUACGAGGU	-3.01 ± 0.27	-2.66 ± 0.3
CAUUAGCAAUAUUACGAUGG	-0.461 ± 0.076	0.0641 ± 0.083
CAUUAGCAAUAUUACGAUUA	-1.47 ± 0.085	-0.981 ± 0.081

Sequence	self-splicing fitness (ln) (30 °C)	self-splicing fitness (ln) (37 °C)
CAUUAGCAAUAUUACGCAAC	-2.14 ± 0.46	-2.51 ± 0.3
CAUUAGCAAUAUUACGCCGG	-0.963 ± 0.15	0.612 ± 0.24
CAUUAGCAAUAUUACGCCUU	-3.03 ± 0.36	-1.84 ± 0.21
CAUUAGCAAUAUUACGCGCG	0.0331 ± 0.12	0.0206 ± 0.13
CAUUAGCAAUAUUACGCGGC	-3.98 ± 0.28	-1.8 ± 0.28
CAUUAGCAAUAUUACGCUAA	-2.7 ± 0.32	–
CAUUAGCAAUAUUACGCUAG	-2.75 ± 0.28	-0.852 ± 0.2
CAUUAGCAAUAUUACGCUAU	-3.47 ± 0.3	-2.99 ± 0.28
CAUUAGCAAUAUUACGCUCA	-1.21 ± 0.07	-0.215 ± 0.073
CAUUAGCAAUAUUACGCUCG	-0.328 ± 0.11	0.302 ± 0.13
CAUUAGCAAUAUUACGGAAU	-2.87 ± 0.29	-2.61 ± 0.31
CAUUAGCAAUAUUACGGACG	-0.114 ± 0.086	0.364 ± 0.11
CAUUAGCAAUAUUACGGCAC	-4.19 ± 0.46	-1.1 ± 0.17
CAUUAGCAAUAUUACGGCGC	-2.01 ± 0.3	-0.0545 ± 0.24
CAUUAGCAAUAUUACGGGUA	-1.06 ± 0.11	-0.972 ± 0.13
CAUUAGCAAUAUUACGGUAU	–	-0.876 ± 0.12
CAUUAGCAAUAUUACGGUUU	-3.82 ± 0.2	-2.68 ± 0.2
CAUUAGCAAUAUUACGUAGG	-0.646 ± 0.08	-0.199 ± 0.11
CAUUAGCAAUAUUACGUAUG	-3.57 ± 0.2	-2.9 ± 0.3
CAUUAGCAAUAUUACGUAUU	-4.04 ± 0.4	-2.37 ± 0.27
CAUUAGCAAUAUUACGUCCA	-3.34 ± 0.32	-1.3 ± 0.28
CAUUAGCAAUAUUACGUCUU	-3.25 ± 0.27	-2.33 ± 0.21
CAUUAGCAAUAUUACGUGUA	-2.78 ± 0.18	-1.57 ± 0.11
CAUUAGCAAUAUUACGUGUU	-3.38 ± 0.18	-2.69 ± 0.2
CAUUAGCAAUAUUACGUUAC	-3.48 ± 0.2	-2.17 ± 0.25

Sequence	self-splicing fitness (ln) (30 °C)	self-splicing fitness (ln) (37 °C)
CCAAAGCAAUAUUACGAAGC	-3.15 ± 0.36	–
CCAAAGCAAUAUUACGACAC	–	-3.02 ± 0.25
CCAAAGCAAUAUUACGACGA	-3.11 ± 0.29	-0.0538 ± 0.26
CCAAAGCAAUAUUACGAGGA	-3.54 ± 0.17	-2.79 ± 0.18
CCAAAGCAAUAUUACGAGGC	-4.23 ± 0.27	-2.46 ± 0.22
CCAAAGCAAUAUUACGCACG	-0.44 ± 0.087	-0.583 ± 0.11
CCAAAGCAAUAUUACGCCGA	-2.83 ± 0.18	-3.4 ± 0.23
CCAAAGCAAUAUUACGCGCU	-3.57 ± 0.15	-3.13 ± 0.17
CCAAAGCAAUAUUACGCUAU	-3.7 ± 0.19	-2.39 ± 0.23
CCAAAGCAAUAUUACGCUCA	-3.2 ± 0.14	-2.2 ± 0.16
CCAAAGCAAUAUUACGGAUG	-1.44 ± 0.069	-1.48 ± 0.1
CCAAAGCAAUAUUACGUAAG	-0.334 ± 0.049	0.53 ± 0.071
CCACAGCAAUAUUACGACUU	-4 ± 0.28	-2.81 ± 0.27
CCACAGCAAUAUUACGAGAG	-2.41 ± 0.067	-1.25 ± 0.065
CCACAGCAAUAUUACGAGGG	-3.22 ± 0.12	-3.11 ± 0.22
CCACAGCAAUAUUACGAUUA	-3.92 ± 0.18	-2.11 ± 0.13
CCACAGCAAUAUUACGAUUU	-4.23 ± 0.19	-3.01 ± 0.17
CCACAGCAAUAUUACGCAGU	-3.58 ± 0.15	-2.92 ± 0.19
CCACAGCAAUAUUACGCAUU	-3.53 ± 0.17	-3.11 ± 0.16
CCACAGCAAUAUUACGCCAG	-2.56 ± 0.15	-1.07 ± 0.14
CCACAGCAAUAUUACGCCCC	-2.07 ± 0.27	-2.2 ± 0.4
CCACAGCAAUAUUACGCCGG	-3.23 ± 0.18	-2.2 ± 0.19
CCACAGCAAUAUUACGCGGA	-3.84 ± 0.21	-1.01 ± 0.11
CCACAGCAAUAUUACGCGGU	-3.46 ± 0.17	-1.94 ± 0.15
CCACAGCAAUAUUACGCGUC	-3.13 ± 0.16	-3.14 ± 0.27

Sequence	self-splicing fitness (ln) (30 °C)	self-splicing fitness (ln) (37 °C)
CCACAGCAAUAUUACGCGUG	-3.86 ± 0.18	-2.38 ± 0.14
CCACAGCAAUAUUACGGAAA	-3.47 ± 0.23	-3.54 ± 0.29
CCACAGCAAUAUUACGGACG	-0.832 ± 0.05	-0.23 ± 0.066
CCACAGCAAUAUUACGGAGA	-3.01 ± 0.21	-1.77 ± 0.17
CCACAGCAAUAUUACGGCUC	-3.39 ± 0.18	-1.79 ± 0.16
CCACAGCAAUAUUACGGGUU	-3.68 ± 0.16	-2.58 ± 0.21
CCACAGCAAUAUUACGGUAC	-4.19 ± 0.19	-2.55 ± 0.18
CCACAGCAAUAUUACGGUUG	-1.72 ± 0.047	-0.701 ± 0.058
CCACAGCAAUAUUACGUACG	-0.647 ± 0.047	-0.02 ± 0.063
CCACAGCAAUAUUACGUCUG	-3.12 ± 0.088	-1.98 ± 0.083
CCACAGCAAUAUUACGUGAC	-3.38 ± 0.16	-2.01 ± 0.13
CCACAGCAAUAUUACGUGCC	-1.6 ± 0.15	-2.36 ± 0.21
CCACAGCAAUAUUACGUUCG	-1.21 ± 0.048	-0.208 ± 0.069
CCAGAGCAAUAUUACGAACG	-0.512 ± 0.081	0.191 ± 0.1
CCAGAGCAAUAUUACGAAGU	-4.41 ± 0.46	-2.8 ± 0.34
CCAGAGCAAUAUUACGAAUU	-4 ± 0.28	-3.11 ± 0.43
CCAGAGCAAUAUUACGAGAG	-2.95 ± 0.21	-1.39 ± 0.23
CCAGAGCAAUAUUACGAGCG	-0.698 ± 0.084	-0.775 ± 0.14
CCAGAGCAAUAUUACGAUAA	-3.17 ± 0.29	-2.04 ± 0.2
CCAGAGCAAUAUUACGAUGC	-3.48 ± 0.34	-2.78 ± 0.29
CCAGAGCAAUAUUACGCAAG	-2.15 ± 0.19	-2.33 ± 0.29
CCAGAGCAAUAUUACGCAGA	-2.8 ± 0.19	-2.84 ± 0.44
CCAGAGCAAUAUUACGCCAC	-3.59 ± 0.26	-2.28 ± 0.24
